Tests used:
Abz-LXEXGK(Dnp) peptides = assay: Enzyme specificity assay (percent substrate conversion by HPLC); format: biochemical
Protocol: (A, D) For each of eSrtA, eSrtA(2A-9), and eSrtA(4S-9), we incubated an activity matched quantity of enzyme (47.5 nM eSrtA, 450 nM eSrtA(2A-9), 115 nM eSrtA(4S-9)) with 10 μM Abz-LXEXGK(Dnp) (SEQ ID NO: 33) and 100 mM Gly-Gly-Gly peptide as listed for 15 minutes. Percent substrate conversion was monitored by reverse phase HPLC analysis and UV absorbance at 355 nm. […] LPEXG: SEQ ID NO: 34.
Assays to determine eSrtA, eSrtA(2A-9) and eSrtA(4S-9) specificity were performed by preparing 10 μM stocks of Abz-LXEXGK(Dnp) (SEQ ID NO: 75) peptides in 300 mM Tris pH 7.5, 150 mM NaCl, 5 mM CaCl2, 5% v/v DMSO, and 100 mM Gly-Gly-Gly-COOH (GGG). Reactions were performed by adding eSrtA(2A-9) to a final concentration of 450 nM, eSrtA(4S-9) to a final concentration of 115 nM or eSrtA to a final concentration of 47.5 nM and a final volume of 100 μL, then incubating at 22.5° C. for 15 minutes. Reactions were quenched by the addition of 0.2 volumes of 5 M HCl, then were injected onto an analytical reverse-phase Eclipse XDB-C18 HPLC column (4.6×150 mm, 5 μm, Agilent Technologies) and chromatographed using a gradient of 10 to 65% acetonitrile with 0.1% TFA in 0.1% aqueous TFA over 13 minutes. Retention times under these conditions for the Abz-LPETGK(Dnp)-CONH2 (SEQ ID NO: 19) substrate, the released GKDnp peptide, and the Abz-LPETGGG-COOH (SEQ ID NO: 20) product were 12.8, 10.4, and 9.1 min, respectively, while the remaining Abz-LXEXGK(Dnp)-CONH2 (SEQ ID NO: 74) substrates varied in retention time between 9 and 13 minutes. To calculate the percent conversion, the ratio of the integrated areas of the GK(Dnp)-CONH2 and Abz-LPETGK(Dnp)-CONH2 (SEQ ID NO: 19) peptide Abs355 peaks were compared directly. Subsequent determination of kcat/Km and KH were performed as described for in vitro SrtA characterization.

[1] = Materials (surface) functionalization of GGG-PEG 96-well plates; format: biochemical; settings: Alexa Fluor 488-LAETGG or Alexa Fluor 647-LPESGG, 2 hours
Protocol: FIG. 21A-D show applications of evolved sortases. (A) N- and C-terminal labeling of fibroblast growth factors FGF1 and FGF2. Tandem SUMO-TEV cleavage site-FGF1/2-LPESG-His6 (SEQ ID NO: 27) constructs were treated with eSrtA(4S-9) in the presence of GGG-PEG, then with eSrtA(2A-9) and TEV protease in the presence of Alexa Fluor750-LAETGG (SEQ ID NO: 35) and purified to afford the final conjugates in up to 20% yield (Table 3). The crude reactions were analyzed by SDS-PAGE and scanned for fluorescence at 700 nm. (B) Surface functionalization using eSrtA(2A-9) and eSrtA(4S-9). […] The total fluorescence of the resulting surfaces was measured at 488 nm or 647 nm, then normalized to the fluorescent intensities obtained from the samples containing eSrtA(2A-9)+488-LAETG (SEQ ID NO: 5) or eSrt(4S-9)+647-LPESG (SEQ ID NO: 3). […]
GGG-functionalized substrate was generated by incubating 100 μL of 2 μM biotin-PEG (5K)-GGG in streptavidin coated 96 well microplates (Pierce) for 2 hours at room temperature, and washed three times with TBST buffer (20 mM Tris, 100 mM NaCl, pH 7.5 with 0.05% Tween 20). […] Total fluorescent intensities were measured at 488 nm and 647 nm using a Biotek Synergy NEO HTS Multi Mode microplate reader. […]

B1: eSrtA(2A-9): P94R, S102C, A104H, E105D, K138P, K152I, N160K, K162H, T164N, D165A, K173E, I182V, K190E, T196S (protein)
chain: QAKPQIPKDKSKVAGYIEIPDADIKEPVYPGPATREQLNRGVCFHDENESLDDQNISIAGHTFIDRPNYQFTNLKAAKPGSMVYFKVGNETRIYKMTSIRKVHPNAVEVLDEQEGKDKQLTLVTCDDYNEETGVWESRKIFVATEVK
**Q.** For B1, which “reduced activity on the next most active substrates, LSETG and LRETG, versus LAETG” value (Abz-LXEXGK(Dnp) peptides; position 2 substrate profile, FIG. 20E) is on record?
**A.** > 20 fold

**Q.** What about the “modification of GGG-PEG-functionalized surfaces” value [1] of the same molecule?
**A.** significant modification only on its cognate substrate

B2: eSrtA(4S-9): P94R, N98D, S102C, A104V, A118T, F122A, K134R, F144L, D160N, D165A, I182V, E189F, K190E, K196T (protein)
chain: QAKPQIPKDKSKVAGYIEIPDADIKEPVYPGPATREQLDRGVCFVEENESLDDQNISITGHTAIDRPNYQFTNLRAAKKGSMVYLKVGNETRKYKMTSIRNVKPTAVEVLDEQKGKDKQLTLVTCDDYNFETGVWETRKIFVATEVK
**Q.** Which “difference in transpeptidation of LPESG over LPETG” value (Abz-LXEXGK(Dnp) peptides; FIG. 20A, 10 μM peptide, 100 mM GGG, 15 minutes) does the source give for B2 here?
**A.** approximately 40 fold

**Q.** What about the “activity on the substrates LPEAG, LPECG and LPESG” value (Abz-LXEXGK(Dnp) peptides; position 4 substrate profile, FIGS. 20A-B) of the same molecule?
**A.** significant activity

**Q.** And the “modification of GGG-PEG-functionalized surfaces” value [1]?
**A.** significant modification only on its cognate substrate
